This is an account of results in publication PMC7049810 (2020).

B1: MepS (enzyme)
chain: CSANNTAKNMHPETRAVGSETSSLQASQDEFENLVRNVDVKSRIMDQYADWKGVRYRLGGSTKKGIDCSGFVQRTFREQFGLELPRSTYEQQEMGKSVSRSNLRTGDLVLFRAGSTGRHVGIYIGNNQFVHASTSSGVIISSMNEPYWKKRYNEARRVLSRS
modifications: where used as fl-MepS in MST: NT647 RED-NHS dye on amines

What all share (experiment): MST
One assay deals with T1, PBP1A, purified (Escherichia coli, UniProt P02918 1-850, NT647 RED-NHS dye on amines (PBP1A was the labelled protein in all MST assays)).
T1 chain: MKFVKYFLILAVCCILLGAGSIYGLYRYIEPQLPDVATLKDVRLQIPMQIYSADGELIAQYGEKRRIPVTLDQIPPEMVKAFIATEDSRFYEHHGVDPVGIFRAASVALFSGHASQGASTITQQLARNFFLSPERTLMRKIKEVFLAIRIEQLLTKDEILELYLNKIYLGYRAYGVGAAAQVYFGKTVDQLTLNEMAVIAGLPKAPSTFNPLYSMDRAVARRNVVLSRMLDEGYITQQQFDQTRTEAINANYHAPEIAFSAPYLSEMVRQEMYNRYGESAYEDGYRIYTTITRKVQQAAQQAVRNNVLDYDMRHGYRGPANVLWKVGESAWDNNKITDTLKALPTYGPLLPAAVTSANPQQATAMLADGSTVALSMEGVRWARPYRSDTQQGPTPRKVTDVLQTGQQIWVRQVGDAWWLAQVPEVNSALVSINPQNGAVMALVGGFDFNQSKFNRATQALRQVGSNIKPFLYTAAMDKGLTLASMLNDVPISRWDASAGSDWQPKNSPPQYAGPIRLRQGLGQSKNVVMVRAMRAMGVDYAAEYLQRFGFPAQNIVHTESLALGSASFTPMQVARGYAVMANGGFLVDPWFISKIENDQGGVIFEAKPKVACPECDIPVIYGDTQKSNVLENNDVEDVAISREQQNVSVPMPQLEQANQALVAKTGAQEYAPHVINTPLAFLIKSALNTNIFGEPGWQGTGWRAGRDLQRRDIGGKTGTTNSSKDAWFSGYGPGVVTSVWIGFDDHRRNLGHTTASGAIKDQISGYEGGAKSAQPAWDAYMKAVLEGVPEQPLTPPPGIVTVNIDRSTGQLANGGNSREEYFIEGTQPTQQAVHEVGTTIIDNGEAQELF

The next assay addresses T2, PBP4, native, purified (Escherichia coli, UniProt P24228 21-477, where used as the labelled protein in MST: NT647 RED-NHS dye on amines).
T2 chain: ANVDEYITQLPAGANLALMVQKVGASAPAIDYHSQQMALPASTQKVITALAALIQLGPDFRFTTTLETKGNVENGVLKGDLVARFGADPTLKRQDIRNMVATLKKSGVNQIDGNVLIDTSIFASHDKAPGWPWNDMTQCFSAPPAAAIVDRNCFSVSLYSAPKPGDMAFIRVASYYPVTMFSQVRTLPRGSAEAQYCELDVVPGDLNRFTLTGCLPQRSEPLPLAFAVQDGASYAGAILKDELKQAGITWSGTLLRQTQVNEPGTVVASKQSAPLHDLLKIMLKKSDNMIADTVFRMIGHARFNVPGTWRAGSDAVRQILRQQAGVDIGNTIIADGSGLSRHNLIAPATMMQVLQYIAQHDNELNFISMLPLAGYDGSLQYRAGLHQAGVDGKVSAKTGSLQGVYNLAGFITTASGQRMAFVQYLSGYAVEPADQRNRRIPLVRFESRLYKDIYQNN

The assay “MepS” addresses B1.

Molecule B1 displayed a Kd in the assay with PBP1A, purified of 91 nM.

B2: PBP7, purified (enzyme)
chain: KTAAATTASQPEIASGSAMIVDLNTNKVIYSNHPDLVRPIASISKLMTAMVVLDARLPLDEKLKVDISQTPEMKGVYSRVRLNSEISRKDMLLLALMSSENRAAASLAHHYPGGYKAFIKAMNAKAKSLGMNNTRFVEPTGLSVHNVSTARDLTKLLIASKQYPLIGQLSTTREDMATFSNPTYTLPFRNTNHLVYRDNWNIQLTKTGFTNAAGHCLVMRTVINNKPVALVVMDAFGKYTHFADASRLRTWIETGKVMPVPAAALSYKKQKAAQMAAAGQTAQND
modifications: where used as the labelled protein in MST: NT647 RED-NHS dye on amines
In turn, B2 returned a Kd in the assay with PBP4, native, purified of 332 nM.

B3: MepM (enzyme)
chain: YHRDATPIVKTIELEQNEIRSLLPEASEPIDQAAQEDEAIPQDELDDKIAGEAGVHEYVVSTGDTLSSILNQYGIDMGDITQLAAADKELRNLKIGQQLSWTLTADGELQRLTWEVSRRETRTYDRTAANGFKMTSEMQQGEWVNNLLKGTVGGSFVASARNAGLTSAEVSAVIKAMQWQMDFRKLKKGDEFAVLMSREMLDGKREQSQLLGVRLRSEGKDYYAIRAEDGKFYDRNGTGLAKGFLRFPTAKQFRISSNFNPRRTNPVTGRVAPHRGVDFAMPQGTPVLSVGDGEVVVAKRSGAAGYYVAIRHGRSYTTRYMHLRKILVKPGQKVKRGDRIALSGNTGRSTGPHLHYEVWINQQAVNPLTAKLPRTEGLTGSDRREFLAQAKEIVPQLRFD
Molecule B3 displayed a Kd in the assay with MepS of 1180 nM.

A word on the Kd: it is a measure of binding affinity in units of concentration.
